Measured values reported in US20180305450A1 (AstraZeneca / MedImmune, published 2018).
Changes are numbered by the printed parent chain.

B1: PaB670103 Fab (Fab, V domains shown)
VH: EVQLLESGGGLVQPGGSLRLSCAASGFTFSSYAMNWVRQAPGKGLEWVSTISYSGSLISYADSVKGRFTISRDNSKNTLYLQMNSLRAEDTAVYYCARINNDPMDVWGQGTLVTVSS
VL: SIELTQPPSVSVSPGQTASITCSGDNLGKKYVQWYQQKPGQSPVLVIYDDSNRPSGIPERFSGSNSGNTATLTISGTQAMDEADYYCHTWDGHHTTGETNHFGGGTKLTVL
notes: Fab; also called ZZ1RCX-C09
B2: PaB670120 Fab (Fab, V domains shown)
VH: B1 VH with S54H, S56H, L57H, V64H, K65H, G66H, N101H
VL: B1 VL with H88Q, H93N, H94P, H101V
notes: Fab; also called ZZ1RUC-C11
B3: PaB670128 Fab (Fab, V domains shown)
VH: B1 VH with S54H, S56H, L57H, V64H, K65H, G66H, N100H, N101H
VL: B1 VL with H88Q, H93N, H94P, H101V
notes: Fab; also called ZZ1RUE-A01
B4: Par0067 Fab (Fab, V domains shown)
VH: B1 VH
VL: B1 VL with H88Q, H93N, H94P, H101V
notes: Fab; also called ZZ15D2-D02
B5: PaB670076 Fab (Fab, V domains shown)
VH: B1 VH
VL: B1 VL with G92H, T99H, H101V
notes: Fab; also called ZZ1NHH-F09
B6: PaB670084 Fab (Fab, V domains shown)
VH: B1 VH with Y53H, S56H, S59H, Y60H, V64H
VL: B1 VL with H88Q, H93N, H94P, H101V
notes: Fab; also called ZZ1PXA-A05
B7: PaB670099 scFv (scFv, V domains shown)
VH: B1 VH with S54H, L57H, A61H, K65H, G66H
VL: B1 VL with H88Q, H93N, H94P, H101V
notes: purified scFv
B8: PaB670100 scFv (scFv, V domains shown)
VH: B1 VH with S54H, S56H, L57H, Y60H, D62H, S63H, K65H
VL: B1 VL with H88Q, H93N, H94P, H101V
notes: purified scFv
B9: PaB670101 scFv (scFv, V domains shown)
VH: B1 VH with N100H, N101H, D102H, M104H, V106H
VL: B1 VL with H88Q, H93N, H94P, H101V
notes: purified scFv; also called ZZ1ODO-H01
B10: PaB670102 scFv (scFv, V domains shown)
VH: B1 VH with N101H, V106H
VL: B1 VL with H88Q, H93N, H94P, H101V
notes: purified scFv; also called ZZ1PXS-F08
B11: PaB670103 scFv (scFv, V domains shown)
VH: B1 VH
VL: B1 VL
notes: purified scFv; also called ZZ1RCX-C09
B12: PaB670104 scFv (scFv, V domains shown)
VH: B1 VH
VL: B1 VL with H88Q, T89H, T95H, H101V
notes: purified scFv
B13: PaB670105 scFv (scFv, V domains shown)
VH: B1 VH
VL: B1 VL with H88Q, T89H, D91H, H93N, H94P, T95H, T99H
notes: purified scFv; also called ZZ1RD0-D01
B14: PaB670106 scFv (scFv, V domains shown)
VH: B1 VH
VL: B1 VL with G92H, H93N, H94P, T95H, T96H, G97H, E98H
notes: purified scFv; also called ZZ1RD0-G02
B15: PaB670107 scFv (scFv, V domains shown)
VH: B1 VH
VL: B1 VL with T89H, D91H, G92H, H93N, H94P, T96H, G97H, H101V
notes: purified scFv; also called ZZ1RD3-D09
B16: PaB670108 scFv (scFv, V domains shown)
VH: B1 VH
VL: B1 VL with H88Q, T89H, D91H, T95H, H101V
notes: purified scFv; also called ZZ1RD3-H03
B17: Par0067 scFv (scFv, V domains shown)
VH: B1 VH
VL: B1 VL with H88Q, H93N, H94P, H101V
notes: purified scFv, parent clone; also called ZZ15D2-D02

The binders below were run against T1, recombinant biotinylated human PAR2 extracellular domain (residues 1-75), N-terminal AviTag, C-terminal Flag … (human, UniProt P55085 26-75, biotin on the AviTag (enzymatic biotinylation)) (assay: Biacore SPR 25 C, pH 6.0).
T1 construct: also called Bio-human-PAR2 ECD; human PAR2 ECD; not shown: N-terminal AviTag (Avidity LLC); C-terminal Flag and poly Histidine tags
Experimental: (§1) The experiments were carried out using recombinant human, rat and cynomolgus PAR2 with an N-terminal Avi tag and C-terminal Flag-His tags.
(§2) Streptavidin was covalently immobilised to a C1 chip surface using standard amine coupling techniques at a concentration of 4 μg/ml in 10 mM Sodium acetate pH 4.5. A final streptavidin surface of approximately 30-100 RUs was achieved. Recombinant biotinylated PAR2 species (produced in-house) were titrated onto the streptavidin chip surface at 4 μg/ml in HBS-EP+ buffer to enable Fab binding at saturation (Rₘₐₓ). This low level of analyte binding ensured minimal mass transport effects.
(§3) The anti-PAR2 Fabs were serially diluted (0.39 nM-25 nM) in HBS-EP+ buffer pH 7.4 or MES-BS-EP+ pH 6.0 buffer or in MES-BS-EP+ pH 5.6 buffer and flowed over the chip at 50 μl/min, with 3 minutes association and up to 30 minutes dissociation. Multiple buffer-only injections were made under the same conditions to allow for double reference subtraction of the final sensorgram sets, which were analysed using the BiaEval software (version 2.0.1). The chip surface was fully regenerated with pulses of 4 M MgCl₂.

T1 sequence (P55085 26-75): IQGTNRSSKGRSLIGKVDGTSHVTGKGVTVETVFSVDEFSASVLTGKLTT

Binder	Kd [nM]	koff [s⁻¹]	kon [M⁻¹ s⁻¹]
B1	1.8	0.000607	336000
B2	6.05	0.021	3.48e+06
B3	20.1	0.0457	2.22e+06
B4	0.0312	9.72e-05	3.12e+06
B5	4.61	0.00514	1.11e+06
B6	4.41	0.00763	1.73e+06

Molecular target: T2, recombinant biotinylated rat PAR2 extracellular residues 1-75, N-terminal AviTag, C-terminal Flag and poly … (rat, UniProt Q63645 26-75, not fully specified; biotin on the AviTag (enzymatic biotinylation))
T2 construct: range 1-75; not shown: N-terminal AviTag (Avidity LLC); C-terminal Flag and poly Histidine tags
T2 chain (looked up): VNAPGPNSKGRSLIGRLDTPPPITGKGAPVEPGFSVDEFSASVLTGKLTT
Assay: Biacore SPR 25 C, pH 6.0
Experimental: as §1, §2, §3

Binder	Kd [nM]	koff [s⁻¹]	kon [M⁻¹ s⁻¹]
B1	10.2	0.00542	531000
B2	34	0.281	8.26e+06
B3	38.5	0.0689	1.79e+06
B4	0.17	0.000544	3.21e+06
B5	30.7	0.051	1.66e+06
B6	10.8	0.0277	2.57e+06

What follows are binders tested against T1, recombinant biotinylated human PAR2 … (assay: Biacore SPR 25 C, pH 7.4).
Experimental: as §1, §2, §3

Binder	Kd [nM]	koff [s⁻¹]	kon [M⁻¹ s⁻¹]
B1	0.0325	0.000111	3.52e+06
B2	0.247	0.00137	5.54e+06
B3	0.613	0.00365	5.95e+06
B4	0.0075	4.96e-05	6.66e+06
B5	0.207	0.00121	5.84e+06
B6	0.25	0.00162	6.49e+06

Molecular target: T2, recombinant biotinylated rat PAR2 …
Assay: Biacore SPR 25 C, pH 7.4
Experimental: as §1, §2, §3

Binder	Kd [nM]	koff [s⁻¹]	kon [M⁻¹ s⁻¹]
B1	0.184	0.000558	3.04e+06
B2	2.61	0.0146	5.62e+06
B3	3.02	0.0196	6.49e+06
B4	0.0376	0.000194	5.16e+06
B5	1.69	0.0107	6.34e+06
B6	1.23	0.00837	6.83e+06

Each binder was assayed against T1, recombinant biotinylated human PAR2 … (assay: HTRF competition with Par0067 IgG, scFv).
Experimental: (§4) 5 μl/well of the appropriate pH 4.44 nM Par0067 IgG solution was added to all wells of the relevant assay plate (pH 7.4 and pH 6.0).
(§5) Test scFv Preparation/Addition: [0172] a) For parallel single point HTS of crude un-purified bacterial lysate scFv samples at both pH 7.4 and pH 6.0 samples were first pre-diluted to 40% of their neat concentration using either pH 7.4 or pH 6.0 assay buffer as appropriate. Subsequently 5 μl of 40% pre-diluted sample was then transferred into the appropriate assay (pH 7.4 or pH 6.0) in order to give a final assay sample concentration of 10.0% (in the 20 μl final assay volume). The parent Par0067 scFv was included in all HTS experiments as a control as were specific pH dependent antibodies as those became available (for benchmarking). […] Duplicate 11 point 1:3 serial dilutions then were prepared on 384 well polypropylene Greiner plates in each of the two assay buffers (pH 7.4 & 6.0). 5 μl per well of each serial dilution was transferred from the relevant pH scFv dilution plate to the corresponding assay plate (pH 7.4 and pH 6.0). 5 μl of the appropriate pH assay buffer was added to the total and non-specific wells. The parent Par0067 purified scFv was included in all multipoint dose response IC₅₀ experiments as a control as were specific pH dependent purified scFv as those became available (for benchmarking).
(§6) For multipoint dose response curves % Specific Binding values were plotted versus test purified antibody concentration (scFv or IgG). IC₅₀ values were determined via a sigmoidal dose response inhibition variable slope curve fit (4 parameter logistic equation) using Graphpad Prism Software.

Binder	Fold IC50 (pH 6.0 v pH 7.4) [fold]	Fold IC50 pH 7.4 (Variant v Par0067) [fold]
B7	4.8	3.9
B8	3.4	6.2
B9	3.4	44.5
B10	2.6	1.6
B11	7.3	8.5
B12	9.3	6.6
B13	6.7	22.5
B14	3.8	94.8
B15	10.9	12.9
B16	5.1	8.8
B17	1.1	1

Each binder was assayed against T1, recombinant biotinylated human PAR2 … (assay: HTRF competition with Par0067 IgG, pH 6.0, scFv).
Experimental: as §4, §5, §6

Binder	IC50 [nM]
B7	62.4
B8	69
B9	496
B10	13.7
B11	204
B12	202
B13	496
B14	1190
B15	464
B16	149
B17	3.6

The binders below were run against T1, recombinant biotinylated human PAR2 … (assay: HTRF competition with Par0067 IgG, pH 7.4, scFv).
Experimental: as §4, §5, §6

Binder	IC50 [nM]
B7	12.9
B8	20.3
B9	147
B10	5.3
B11	27.9
B12	21.7
B13	74.4
B14	313
B15	42.7
B16	29.1
B17	3.3
